Test results reported in patent US20170274038A1.

Target: angiotensin AT1 receptor (on human umbilical vein endothelial cells) (human) (UniProt P30556)
Assay: cell-based or functional assay

UniProt P30556, sequence (P30556 whole entry): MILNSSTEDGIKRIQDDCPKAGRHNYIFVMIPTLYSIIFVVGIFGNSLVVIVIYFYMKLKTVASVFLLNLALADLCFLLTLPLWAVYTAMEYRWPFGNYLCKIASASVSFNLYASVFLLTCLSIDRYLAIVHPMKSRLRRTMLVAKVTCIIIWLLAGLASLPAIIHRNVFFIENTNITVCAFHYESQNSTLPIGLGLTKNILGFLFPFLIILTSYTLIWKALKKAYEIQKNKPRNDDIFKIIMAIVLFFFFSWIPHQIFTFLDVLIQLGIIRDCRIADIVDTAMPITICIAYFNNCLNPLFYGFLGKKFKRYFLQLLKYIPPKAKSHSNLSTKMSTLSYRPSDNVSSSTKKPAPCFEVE

des-aspartate-angiotensin I (from UniProt P01019 26-34) (peptide)
release of PGE2 and PGI2 from HUVEC (effective concentration of DAA-I): 100 pM
